In US20200038505A1:

Molecular target: EBVgp350/220 wild type (full length, BLLF1, EBV strain B95-8) (Epstein-Barr virus strain B95-8) (UniProt P03200)
Experiment: cell-based or functional assay

UniProt P03200, sequence (P03200 whole entry): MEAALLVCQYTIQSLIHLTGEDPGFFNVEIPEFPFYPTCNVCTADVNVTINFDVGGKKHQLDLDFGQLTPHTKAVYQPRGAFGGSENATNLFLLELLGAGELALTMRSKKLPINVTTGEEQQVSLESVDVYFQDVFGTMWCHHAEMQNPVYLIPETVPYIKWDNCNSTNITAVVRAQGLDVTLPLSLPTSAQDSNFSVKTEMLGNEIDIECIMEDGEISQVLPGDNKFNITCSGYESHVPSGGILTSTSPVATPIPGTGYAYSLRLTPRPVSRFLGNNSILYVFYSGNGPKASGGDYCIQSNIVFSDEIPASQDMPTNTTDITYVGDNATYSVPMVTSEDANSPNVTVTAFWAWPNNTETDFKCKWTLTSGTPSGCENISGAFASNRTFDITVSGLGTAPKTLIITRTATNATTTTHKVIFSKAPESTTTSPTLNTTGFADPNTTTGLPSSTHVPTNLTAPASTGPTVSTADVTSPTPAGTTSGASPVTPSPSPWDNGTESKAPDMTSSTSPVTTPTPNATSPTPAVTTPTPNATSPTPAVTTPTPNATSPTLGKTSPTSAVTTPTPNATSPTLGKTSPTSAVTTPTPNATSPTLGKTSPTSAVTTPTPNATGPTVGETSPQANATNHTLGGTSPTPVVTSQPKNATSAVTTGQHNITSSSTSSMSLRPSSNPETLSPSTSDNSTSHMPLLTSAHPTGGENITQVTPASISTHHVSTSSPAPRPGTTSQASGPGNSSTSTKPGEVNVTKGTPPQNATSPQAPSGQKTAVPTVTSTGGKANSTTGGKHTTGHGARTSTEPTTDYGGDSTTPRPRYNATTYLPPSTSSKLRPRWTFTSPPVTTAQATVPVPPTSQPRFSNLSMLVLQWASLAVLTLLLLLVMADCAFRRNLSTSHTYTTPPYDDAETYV

Row | Substance | percent fluorescent (EGFP+) Raji cells after infection with EGFP-EBV pre-incubated with the antibody [%] | percent of EGFP+ Raji cells post-infection [%]
1 | monoclonal antibody mAb-2L10 anti-gp350/220 | 27 | 25
2 | monoclonal antibody mAb-72A1 anti-gp350/220 | 1 | 
